According to patent US20210290759A1 (BRAVOVAX, published 2021):

Key:
[1] = target: TLR-5 receptor on THP-1 cells (UniProt O60602); assay: cell-based or functional assay
[2] = target: TLR-5 receptor on THP-1 cells (UniProt O60602 21-858); assay: cell-based or functional assay
TLR-5 receptor on THP-1 cells (UniProt O60602 21-858), sequence (O60602 21-858 limits assumed): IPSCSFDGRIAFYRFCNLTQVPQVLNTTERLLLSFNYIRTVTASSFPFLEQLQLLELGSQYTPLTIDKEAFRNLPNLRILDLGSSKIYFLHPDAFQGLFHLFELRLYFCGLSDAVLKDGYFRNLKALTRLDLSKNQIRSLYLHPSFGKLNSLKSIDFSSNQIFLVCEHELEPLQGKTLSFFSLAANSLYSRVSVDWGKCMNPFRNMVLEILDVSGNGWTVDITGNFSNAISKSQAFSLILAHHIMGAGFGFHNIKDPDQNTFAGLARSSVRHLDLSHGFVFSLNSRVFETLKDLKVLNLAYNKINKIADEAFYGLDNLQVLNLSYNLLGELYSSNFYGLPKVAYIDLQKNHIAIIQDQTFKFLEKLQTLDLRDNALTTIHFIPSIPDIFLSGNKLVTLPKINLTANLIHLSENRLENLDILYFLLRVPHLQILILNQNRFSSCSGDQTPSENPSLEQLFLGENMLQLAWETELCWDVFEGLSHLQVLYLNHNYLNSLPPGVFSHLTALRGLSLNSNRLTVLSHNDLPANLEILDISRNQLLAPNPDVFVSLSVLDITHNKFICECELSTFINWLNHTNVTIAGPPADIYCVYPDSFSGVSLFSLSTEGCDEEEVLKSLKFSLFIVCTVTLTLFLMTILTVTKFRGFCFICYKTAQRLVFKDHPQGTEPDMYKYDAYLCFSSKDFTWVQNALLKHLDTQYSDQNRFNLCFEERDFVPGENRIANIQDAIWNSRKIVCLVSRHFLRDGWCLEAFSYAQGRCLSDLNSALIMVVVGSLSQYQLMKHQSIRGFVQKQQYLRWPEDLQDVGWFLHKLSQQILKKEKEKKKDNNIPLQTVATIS

TLR-5 receptor on THP-1 cells (UniProt O60602), sequence (O60602 21-858 limits assumed): as above

endotoxin-free flagellin protein (Alpha Diagnostic) (ligand)
IL-8 content in THP-1 supernatant, stimulation at 2.5 ug/mL [1]: 19.6 ng | In vitro relative potency (%), IL-8 [1]: 100% | In vitro relative potency (%), TNF-α [1]: 100% | TNF-α content in THP-1 supernatant, stimulation at 2.5 ug/mL [1]: 969 pg

B1: recombinant VZV gE protein (gE extracellular region), expressed in eukaryotic cells from recombinant adenovirus (other)
chain: SVLRYDDFHIDEDKLDTNSVYEPYYHSDHAESSWVNRGESSRKAYDHNSPYIWPRNDYDGFLENAHEHHGVYNQGRGIDSGERLMQPTQMSAQEDLGDDTGIHVIPTLNGDDRHKIVNVDQRQYGDVFKGDLNPKPQGQRLIEVSVEENHPFTLRAPIQRIYGVRYTETWSFLPSLTCTGDAAPAIQHICLKHTTCFQDVVVDVDCAENTKEDQLAEISYRFQGKKEADQPWIVVNTSTLFDELELDPPEIEPGVLKVLRTEKQYLGVYIWNMRGSDGTSTYATFLVTWKGDEKTRNPTPAVTPQPRGAEFHMWNYHSHVFSVGDTFSLAMHLQYKIHEAPFDLLLEWLYVPIDPTCQPMRLYSTCLYHPNAPQCLSHMNSGCTFTSPHLAQRVASTVYQNCEHADNYTAYCLGISHMEPSFGLILHDGGTTLKFVDTPESLSGLYVFVVYFNGHVEAVAYTVVSTVDHFVNAIEERGFPPTAGQPPATTKPKEITPVNPGTSPLIR
IL-8 content in THP-1 supernatant, stimulation at 5 ug/mL [2]: 0 ng | In vitro relative potency (%), IL-8 [2]: 0% | In vitro relative potency (%), TNF-α [2]: 0% | TNF-α content in THP-1 supernatant, stimulation at 5 ug/mL [2]: 0 pg

B2: ANF fusion protein (N-terminal D0-D1-C terminal D1-D0-gE, LT2) (other)
chain: AQVINTNSLSLLTQNNLNKSQSALGTAIERLSSGLRINSAKDDAAGQAIANRFTANIKGLTQASRNANDGISIAQTTEGALNEINNNLQRVRELAVQSANSTNSQSDLDSIQAEITQRLNEIDRVSGQTQFNGVKVLAQDNTLTIQVGANDGETIDIDLKQINSQTLGLDTLNVQSPGISGGGGGILDSMGKAQPDLAEAAATTTENPLQKIDAALAQVDTLRSDLGAVQNRFNSAITNLGNTVNNLTSARSRIEDSDYATEVSNMSRAQILQQAGTSVLAQANQVPQNVLSLLRGGGGSGGGGSGGGGSSVLRYDDFHIDEDKLDTNSVYEPYYHSDHAESSWVNRGESSRKAYDHNSPYIWPRNDYDGFLENAHEHHGVYNQGRGIDSGERLMQPTQMSAQEDLGDDTGIHVIPTLNGDDRHKIVNVDQRQYGDVFKGDLNPKPQGQRLIEVSVEENHPFTLRAPIQRIYGVRYTETWSFLPSLTCTGDAAPAIQHICLKHTTCFQDVVVDVDCAENTKEDQLAEISYRFQGKKEADQPWIVVNTSTLFDELELDPPEIEPGVLKVLRTEKQYLGVYIWNMRGSDGTSTYATFLVTWKGDEKTRNPTPAVTPQPRGAEFHMWNYHSHVFSVGDTFSLAMHLQYKIHEAPFDLLLEWLYVPIDPTCQPMRLYSTCLYHPNAPQCLSHMNSGCTFTSPHLAQRVASTVYQNCEHADNYTAYCLGISHMEPSFGLILHDGGTTLKFVDTPESLSGLYVFVVYFNGHVEAVAYTVVSTVDHFVNAIEERGFPPTAGQPPATTKPKEITPVNPGTSPLIR
IL-8 content in THP-1 supernatant, stimulation at 5 ug/mL [2]: 10.8 ng | In vitro relative potency (%), IL-8 [2]: 55.3% | In vitro relative potency (%), TNF-α [2]: 57% | TNF-α content in THP-1 supernatant, stimulation at 5 ug/mL [2]: 552 pg

B3: ASF fusion protein (N-terminal D0-D1-gE-C-terminal D1-D0, LT2) (other)
chain: AQVINTNSLSLLTQNNLNKSQSALGTAIERLSSGLRINSAKDDAAGQAIANRFTANIKGLTQASRNANDGISIAQTTEGALNEINNNLQRVRELAVQSANSTNSQSDLDSIQAEITQRLNEIDRVSGQTQFNGVKVLAQDNTLTIQVGANDGETIDIDLKQINSQTLGLDTLNVQGGGGSGGGGSGGGGSSVLRYDDFHIDEDKLDTNSVYEPYYHSDHAESSWVNRGESSRKAYDHNSPYIWPRNDYDGFLENAHEHHGVYNQGRGIDSGERLMQPTQMSAQEDLGDDTGIHVIPTLNGDDRHKIVNVDQRQYGDVFKGDLNPKPQGQRLIEVSVEENHPFTLRAPIQRIYGVRYTETWSFLPSLTCTGDAAPAIQHICLKHTTCFQDVVVDVDCAENTKEDQLAEISYRFQGKKEADQPWIVVNTSTLFDELELDPPEIEPGVLKVLRTEKQYLGVYIWNMRGSDGTSTYATFLVTWKGDEKTRNPTPAVTPQPRGAEFHMWNYHSHVFSVGDTFSLAMHLQYKIHEAPFDLLLEWLYVPIDPTCQPMRLYSTCLYHPNAPQCLSHMNSGCTFTSPHLAQRVASTVYQNCEHADNYTAYCLGISHMEPSFGLILHDGGTTLKFVDTPESLSGLYVFVVYFNGHVEAVAYTVVSTVDHFVNAIEERGFPPTAGQPPATTKPKEITPVNPGTSPLIRGGGGSGGGGSGGGGSKAQPDLAEAAATTTENPLQKIDAALAQVDTLRSDLGAVQNRFNSAITNLGNTVNNLTSARSRIEDSDYATEVSNMSRAQILQQAGTSVLAQANQVPQNVLSLLR
IL-8 content in THP-1 supernatant, stimulation at 5 ug/mL [2]: 27.8 ng | In vitro relative potency (%), IL-8 [2]: 142% | In vitro relative potency (%), TNF-α [2]: 104% | TNF-α content in THP-1 supernatant, stimulation at 5 ug/mL [2]: 1000 pg

B4: ACF fusion protein (gE-N-terminal D0-D1-C-terminal D1-D0, LT2) (other)
chain: SVLRYDDFHIDEDKLDTNSVYEPYYHSDHAESSWVNRGESSRKAYDHNSPYIWPRNDYDGFLENAHEHHGVYNQGRGIDSGERLMQPTQMSAQEDLGDDTGIHVIPTLNGDDRHKIVNVDQRQYGDVFKGDLNPKPQGQRLIEVSVEENHPFTLRAPIQRIYGVRYTETWSFLPSLTCTGDAAPAIQHICLKHTTCFQDVVVDVDCAENTKEDQLAEISYRFQGKKEADQPWIVVNTSTLFDELELDPPEIEPGVLKVLRTEKQYLGVYIWNMRGSDGTSTYATFLVTWKGDEKTRNPTPAVTPQPRGAEFHMWNYHSHVFSVGDTFSLAMHLQYKIHEAPFDLLLEWLYVPIDPTCQPMRLYSTCLYHPNAPQCLSHMNSGCTFTSPHLAQRVASTVYQNCEHADNYTAYCLGISHMEPSFGLILHDGGTTLKFVDTPESLSGLYVFVVYFNGHVEAVAYTVVSTVDHFVNAIEERGFPPTAGQPPATTKPKEITPVNPGTSPLIRGGGGSGGGGSGGGGSAQVINTNSLSLLTQNNLNKSQSALGTAIERLSSGLRINSAKDDAAGQAIANRFTANIKGLTQASRNANDGISIAQTTEGALNEINNNLQRVRELAVQSANSTNSQSDLDSIQAEITQRLNEIDRVSGQTQFNGVKVLAQDNTLTIQVGANDGETIDIDLKQINSQTLGLDTLNVQSPGISGGGGGILDSMGKAQPDLAEAAATTTENPLQKIDAALAQVDTLRSDLGAVQNRFNSAITNLGNTVNNLTSARSRIEDSDYATEVSNMSRAQILQQAGTSVLAQANQVPQNVLSLLR
IL-8 content in THP-1 supernatant, stimulation at 5 ug/mL [2]: 6.41 ng | In vitro relative potency (%), IL-8 [2]: 32.7% | In vitro relative potency (%), TNF-α [2]: 11.6% | TNF-α content in THP-1 supernatant, stimulation at 5 ug/mL [2]: 112 pg
